± gives the half width of the 95% confidence interval.
Columns and labels:
[1] = folding stability dG unfold from trypsin proteolysis; higher = more stable
Procedure, shortened: (§1)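 How resistant each design was to proteolysis was captured as K50, inferred by Bayesian fitting of sequencing counts. Unfolding free energy was then derived relative to a sequence-predicted unfolded-state K50 and a shared folded-state K50, per protease or combined. Digestion used trypsin and chymotrypsin at 11 threefold-diluted concentrations plus a no-protease condition, on mini-proteins under 80 residues without cysteine in a PA-tagged cDNA display construct. Designs were kept only when AlphaFold2 dimer inter-PAE was above 15.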

[2] = folding stability dG unfold from chymotrypsin proteolysis; higher = more stable
Procedure, shortened: as §1

[3] = folding stability dG unfold (combined trypsin and chymotrypsin); higher = more stable
Procedure, shortened: as §1

| Sequence | folding stability dG unfold [1] [kcal/mol] | folding stability dG unfold [2] [kcal/mol] | folding stability dG unfold [3] [kcal/mol] |
| --- | --- | --- | --- |
| SAGGSAGGSKNMVMVEIPFEHKVKQPDPPDGKWRQHEHKPTIPYMIPPEDAEELLNSPALKKISAGGSAGGS [r12_1015_TrROS] | 0.138 ± 0.2 | 0.0107 ± 0.21 | 0.043 ± 0.19 |
| SEITIKLKVENLSEEELKKLAEELAKEGLFEITSIKVENGYVTITIKKKPKPPPKPEKKKVVFDKDGKPVSA [r9_830_TrROS_Hall] | 0.975 ± 0.071 | 2.58 ± 0.12 | 2.2 ± 0.14 |
| SAGGSAGGSAGMTVEEFTIPEVGGRVIRTTVEEPTEDGVVVRRRYLILVNPDGTVERRPESAGGSAGGSAGG [r11_911_JUSTAS] | -0.0463 ± 0.17 | 0.13 ± 0.17 | 0.111 ± 0.092 |
| SAGWIIRITLPDNGRTIEIDFENGYIIKITSPDEGKPRVIPIPPDDIREWIKELFPGPVRIVEIYPLPKSAG [r5_519_TrROS] | 2.21 ± 0.042 | 3.09 ± 0.05 | 2.69 ± 0.083 |
| SKTVVVEINGYLIVVEEKKLENGETYYTVKIVNKKTKKVIEVKAKSKEEAEKAVLEALRKLFPDEELKKLSA [r9_749_TrROS_Hall] | 3.05 ± 0.15 | 2.45 ± 0.075 | 2.51 ± 0.35 |
| SMLLIKITVKNPDGEEKEIVLSAEELRKLFEEETGEEYSLEEIAERLKKLFPNAKVEIVPLEELSEEELKSA [r9_1085_TrROS_Hall] | 2.77 ± 0.073 | 3.58 ± 0.068 | 3.31 ± 0.12 |
| SAGKPEWKLVETIEVTIEVPPGVTVEEIEKKLLEALKEKGIKEVKIEVTYDKENKTITVRVEVLVKKEKSAG [r5_924_TrROS_Hall] | 1.27 ± 0.13 | 1.92 ± 0.11 | 1.66 ± 0.26 |
| SAGGSAGGSKLEEILKKLPPNAKITIEKDEETNVYTITITNKNGEKYTFTFSKEEVKKLLEKLSAGGSAGGS [r12_174_TrROS_Hall] | 3.13 ± 0.19 | 4.76 ± 0.24 | 4.62 ± 0.22 |
| SAGGWYIRIKEIERNNDGVNIDIQIPDPDDPEFFENIAENLAQKLGMPKENIKIRIEPTPMPPDPEEPSAGG [r13_430_TrROS] | 0.248 ± 0.13 | 0.0789 ± 0.35 | 0.247 ± 0.23 |
| SAPPLPPETITLTLTIDGYEITVTLTRLPDGTVKLTVTVTLPDGTTVTITMYFDAKTNKWYITKIEITPPSA [r9_795_TrROS_Hall] | 4.04 ± 0.48 | 5.19 ± 0.12 | 5.26 ± 0.33 |
| SAGGMKIEITVSPVGDVVNVEVKIELPEGPVEVVDETPAEVAPDGSIHIKLKLKLPNGPWLEMEIEVSAGGS [r8_449_JUSTAS] | 2.91 ± 0.24 | 3.97 ± 0.15 | 3.87 ± 0.33 |
| MKPLTPEEVKKIAEGIAKEIEKAAKALGIDKVEVPVKIEKLPDGGYKIIIEVKLYKDDKKIGTFPIEIYIDS [r1_364_TrMRF] | 3.51 ± 0.34 | 3.1 ± 0.14 | 2.9 ± 0.39 |
| SAGGSAGGSAGGPKVFKFKDKIIVIYPNKKPNEEVKVVVKNPKTGKKEEFKIKIPKELLKSAGGSAGGSAGG [r7_834_TrMRF] | 0.512 ± 0.079 | 1.11 ± 0.13 | 0.847 ± 0.11 |
| SAGGFWLKNPNGHYIQVNVEVEWEPRRDPDNGKPTWEPKIEINVEVYDPNGEKRPIPEDQAKDLLKKLSAGG [r13_809_TrROS] | 0.604 ± 0.073 | 1.64 ± 0.082 | 1.31 ± 0.11 |
| SAGGSAGGSAGGMTPIEVTVELEEPTRRTTRRFTFTSPEEVEAYLKALPASWRVTRVELRSAGGSAGGSAGG [r17_410_JUSTAS] | 1.58 ± 0.038 | 1.82 ± 0.15 | 1.66 ± 0.075 |
| SAGGSAPEALVFVERREDDSLTVVVLFPDGTLVTRRVEVRDEGVTVETETAPVLVIPEPGRLELALSAGGSA [r15_746_TrMRF] | 0.595 ± 0.029 | 1.39 ± 0.046 | 1.14 ± 0.051 |
| SAGGKPLTVEDAKELAESLAKPLKEELGLGNVKILAAPVEVGGEEGKPAEVRIGFLFDLSEDGEFVGSAGGS [r16_751_TrMRF] | -0.405 ± 0.31 | 0.0162 ± 0.16 | -0.112 ± 0.23 |
| SAGGSAGGSAEVPKPGEAKPVLVTSSFTIPLPNGGTLEITTVDLVDVATGTVTPRVEVRSLDSAGGSAGGSA [r18_123_TrMRF] | -0.786 ± 0.33 | -0.991 ± 0.88 | < -1 |
| SMTVTTDPSSLTFTLPPTYTSVEQAREALEELGFKLPSSVKSITIESVDEGKNLNTITVTFDDPEALKKLSA [r9_820_JUSTAS] | 0.74 ± 0.03 | 0.922 ± 0.089 | 0.913 ± 0.082 |
| SSISPSSTLTFSKPFPDDDINAVKEFAEKLAKEIGPDVSVVKIEKDPNNPNKVTITISVPGTSITVNFSNSA [r9_1079_JUSTAS] | 1.09 ± 0.054 | 0.664 ± 0.26 | 1.01 ± 0.14 |
| SAGSLEKVTESSTSSDKVEVTTTTLTPLSNPSVPVQYVKTTTTTTLIDPATGKTLSTTTTTTTTPLPAASAG [r5_300_JUSTAS] | -0.0274 ± 0.047 | 0.0998 ± 0.19 | 0.053 ± 0.19 |
